This note sets out measurements from article PMC5364666, “Human MFAP1 is a cryptic ortholog of the Saccharomyces cerevisiae Spp381 splicing factor” (BMC Evolutionary Biology, 2017).

The chains are these.
B3: S. cerevisiae Prp38 (pre-mRNA processing factor 38 domain containing protein), full-length wild type (natural protein, UniProt Q00723 1-242, looked up)
chain: MAVNEFQVESNISPKQLNNQSVSLVIPRLTRDKIHNSMYYKVNLSNESLRGNTMVELLKVMIGAFGTIKGQNGHLHMMVLGGIEFKCILMKLIEIRPNFQQLNFLLNVKNENGFDSKYIIALLLVYARLQYYYLNGNNKNDDDENDLIKLFKVQLYKYSQHYFKLKSFPLQVDCFAHSYNEELCIIHIDELVDWLATQDHIWGIPLGKCQWNKIYNSDEESSSSESESNGDSEDDNDTSSES
notes: Prp38, S. cerevisiae, ORF amplified from genomic DNA; also called scPrp38; source: E. coli Rosetta 2 (DE3) or BL21 (DE3) RIL, purified (Ni-NTA, TEV cleavage, SEC); not shown: His6, N-terminal, cleaved

Conditions in all cases: both partners purified
Assay [1] addresses B3. The assay can be described thus: SEC; analytical gel filtration of two proteins: 50 uM each, equimolar, incubated 30 min at 4 °C in SEC buffer (10 mM Tris-HCl pH 8.0, 300 mM NaCl, 0.1 mM EDTA, 1 mM DTT); Superdex 75 or Superdex 200 Increase columns at 4 °C; peak fractions by SDS-PAGE. In general terms: SEC sorts molecules by how far they enter the pores of the column.
The target of assay [2] is T1, S. cerevisiae Spp381 (pre-mRNA-splicing factor suppressor of prp38-1), full-length wild type (S. cerevisiae, UniProt P38282 1-291).
T1 construct: Spp381, S. cerevisiae, UniProt P38282, ORF amplified from genomic DNA; also called scSpp381; scSpp381^FL; source: E. coli Rosetta 2 (DE3) or BL21 (DE3) RIL, purified (Ni-NTA, TEV cleavage, SEC); not shown: His6, N-terminal, cleaved
T1 sequence (looked up): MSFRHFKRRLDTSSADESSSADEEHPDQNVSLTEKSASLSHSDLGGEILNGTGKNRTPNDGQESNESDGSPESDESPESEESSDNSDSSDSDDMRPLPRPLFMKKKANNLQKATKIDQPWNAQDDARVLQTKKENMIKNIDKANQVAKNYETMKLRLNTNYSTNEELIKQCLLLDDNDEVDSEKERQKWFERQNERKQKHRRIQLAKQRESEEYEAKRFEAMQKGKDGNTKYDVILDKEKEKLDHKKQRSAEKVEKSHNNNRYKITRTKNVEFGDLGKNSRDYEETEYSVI
The description is as above.

The target of assay [3] is B3. The assay can be described thus: SEC; analytical gel filtration of three proteins (scSnu23 116-169, scPrp38, scSpp381 177-248) on a Superdex 75 10/300 column; fractions by SDS-PAGE.

B1: S. cerevisiae Spp381 residues 177-248 (domain or fragment, UniProt P38282 177-248, looked up)
chain: NDEVDSEKERQKWFERQNERKQKHRRIQLAKQRESEEYEAKRFEAMQKGKDGNTKYDVILDKEKEKLDHKKQ
notes: also called scSpp381^177-248; source: E. coli Rosetta 2 (DE3) or BL21 (DE3) RIL, purified (Ni-NTA, TEV cleavage, SEC); not shown: His6, N-terminal, cleaved
B1: the binding result in assay [1] is recorded as “binds”.

B2: Human MFAP1 (microfibrillar-associated protein 1) residues 267-344 (domain or fragment)
chain: not shown
notes: the minimal fragment used for crystallization of the hsPrp38-hsMFAP1 complex; source: E. coli Rosetta 2 (DE3) or BL21 (DE3) RIL, purified (Ni-NTA, TEV cleavage, SEC); not shown: His6, N-terminal, cleaved
Turning to B2, in assay [1], the binding result is recorded as “binds”.
As to B3, the binding result in assay [2] was “binds”.

B4: S. cerevisiae Snu23 (23 kDa small nuclear ribonucleoprotein component) residues 116-169 (domain or fragment, UniProt Q12368 116-169, looked up)
chain: LIIDIRDNDDVPQEEFELCYHNLIKDFVEVRSMETQSKRKRLLDTDVEKAKKVA
Take B4: the binding result in assay [3] is reported as “binds”.
